The source of these data is the supplement of paper PMC5998384.

For data set [1], the system named is HeLa Kyoto. Kind of data set: melting temperature (median over replicates), in situ; higher = more thermally stable.
Data set [2] deals with HeLa Kyoto. The experiment in a line: thermal stability score vs G1/S (z-score of summed log2 fold changes over temperatures); higher = more thermally stable than in G1/S.
Data set [3] has as its system HeLa Kyoto. Kind of data set: solubility change mitosis vs G1/S (difference of NP-40 vs SDS log2 ratios) (log2 ratio difference); higher = more soluble in mitosis.
The subject of data set [4] is HeLa Kyoto. The experiment in a line: solubility in G1/S (NP-40 vs SDS abundance) (log2 ratio); higher = more soluble. To be noted: cell cycle stage: G1/S.
The mark [5] stands for this setting: cell cycle stage: early G1 (4.5 h after nocodazole release).
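Wherever melting temperature (median over replicates), in situ is given: HeLa Kyoto cells synchronized by double thymidine or nocodazole block, proteins quantified by TMT10plex mass spectrometry, three independent biological replicates.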
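Wherever solubility change mitosis vs G1/S (difference of NP-40 vs SDS log2 ratios) is given: synchronized HeLa Kyoto cells (double thymidine block for G1/S, nocodazole release for mitosis), protein amounts in NP-40 versus SDS lysates quantified by mass spectrometry, three biological replicates.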
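Wherever solubility in G1/S (NP-40 vs SDS abundance) is given: HeLa Kyoto cells arrested at G1/S by double thymidine block, proteins quantified by TMT10plex mass spectrometry in mild NP-40 versus SDS extracts, three biological replicates.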
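Wherever thermal stability score vs G1/S (z-score of summed log2 fold changes over temperatures) is given: synchronized HeLa Kyoto cells, proteins quantified by TMT10plex mass spectrometry, three biological replicates, mitosis taken 0.5 h after nocodazole release, G1/S directly after double thymidine block.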

With “MGNVLAASSPPAGPPPPPAPALVGLPPPPPSPPGFTLPPLGGSLGAGTSTSRSSERTPGAATASASGAAEDGACGCLPNPGTFEECHRKCKELFPIQMEGVKLTVNKGLSNHFQVNHTVALSTIGESNYHFGVTYVGTKQLSPTEAFPVLVGDMDNSGSLNAQVIHQLGPGLRSKMAIQTQQSKFVNWQVDGEYRGSDFTAAVTLGNPDVLVGSGILVAHYLQSITPCLALGGELVYHRRPGEEGTVMSLAGKYTLNNWLATVTLGQAGMHATYYHKASDQLQVGVEFEASTRMQDTSVSFGYQLDLPKANLLFKGSVDSNWIVGATLEKKLPPLPLTLALGAFLNHRKNKFQCGFGLTIG [TOMM40]”, the melting temperature in the data set with HeLa Kyoto [1] (cell cycle stage: G1/S) came out at 62.9 °C; in the data set on HeLa Kyoto [1] (cell cycle stage: mitosis), 61.7 °C. In addition, the thermal stability score with HeLa Kyoto [2] (setting [5]) is -1.53; in the data set with HeLa Kyoto [2] (cell cycle stage: mitosis), -3.48. Also, in the data set on HeLa Kyoto [3], the “solubility change mitosis (log2)” value is -0.17. For the same sequence, the “solubility in G1/S (log2)” value in the data set on HeLa Kyoto [4] stood at 0.262.
As to “MGPAPAGEQLRGATGEPEVMEPALEGTGKEGKKASSRKRTLAEPPAKGLLQPVKLSRAELYKEPTNEELNRLRETEILFHSSLLRLQVEELLKEVRLSEKKKDRIDAFLREVNQRVVRVPSVPETELTDQAWLPAGVRVPLHQVPYAVKGCFRFLPPAQVTVVGSYLLGTCIRPDINVDVALTMPREILQDKDGLNQRYFRKRALYLAHLAHHLAQDPLFGSVCFSYTNGCHLKPSLLLRPRGKDERLVTVRLHPCPPPDFFRPCRLLPTKNNVRSAWYRGQSPAGDGSPEPPTPRYNTWVLQDTVLESHLQLLSTILSSAQGLKDGVALLKVWLRQRELDKGQGGFTGFLVSMLVVFLVSTRKIHTTMSGYQVLRSVLQFLATTDLTVNGISLCLSSDPSLPALADFHQAFSVVFLDSSGHLNLCADVTASTYHQVQHEARLSMMLLDSRADDGFHLLLMTPKPMIRAFDHVLHLRPLSRLQAACHRLKLWPELQDNGGDYVSAALGPLTTLLEQGLGARLNLLAHSRPPVPEWDISQDPPKHKDSGTLTLGLLLRPEGLTSVLELGPEADQPEAAKFRQFWGSRSELRRFQDGAIREAVVWEAASMSQKRLIPHQVVTHLLALHADIPETCVHYVGGPLDALIQGLKETSSTGEEALVAAVRCYDDLSRLLWGLEGLPLTVSAVQGAHPVLRYTEVFPPTPVRPAFSFYETLRERSSLLPRLDKPCPAYVEPMTVVCHLEGSGQWPQDAEAVQRVRAAFQLRLAELLTQQHGLQCRATATHTDVLKDGFVFRIRVAYQREPQILKEVQSPEGMISLRDTAASLRLERDTRQLPLLTSALHGLQQQHPAFSGVARLAKRWVRAQLLGEGFADESLDLVAAALFLHPEPFTPPSSPQVGFLRFLFLVSTFDWKNNPLFVNLNNELTVEEQVEIRSGFLAARAQLPVMVIVTPQDRKNSVWTQDGPSAQILQQLVVLAAEALPMLEKQLMDPRGPGDIRTVFRPPLDIYDVLIRLSPRHIPRHRQAVDSPAASFCRGLLSQPGPSSLMPVLGYDPPQLYLTQLREAFGDLALFFYDQHGGEVIGVLWKPTSFQPQPFKASSTKGRMVMSRGGELVMVPNVEAILEDFAVLGEGLVQTVEARSERWTV [NOL6]”, the melting temperature with HeLa Kyoto [1] (cell cycle stage: G1/S) came out at 52.4 °C; in the data set with HeLa Kyoto [1] (cell cycle stage: mitosis), 51.4 °C. For the same sequence, the thermal stability score is -1.55 in the data set on HeLa Kyoto [2] (setting [5]) and -1.79 in the data set on HeLa Kyoto [2] (cell cycle stage: mitosis). The “solubility change mitosis (log2)” value in the data set on HeLa Kyoto [3] was found to be 0.851. In addition, the “solubility in G1/S (log2)” value in the data set with HeLa Kyoto [4] was -1.58.
In the case of “MGPRKKSVKTCIMNNEIPEEMTADETKDYMNQLSHEVLCHIFRYLPLQDIMCMECLSRKLKEAVTLYLRVVRVVDLCAGRWWEYMPSGFTDASFLTLLKKMPDVEQLYGLHPRYLERRRVRGHEAFSIPGVLEALQACPNLVGVETSHLELVESIWTYMPHVHILGKFRNRNGAFPIPPENKLKIPIGAKIQTLHLVGVNVPEIPCIPMLRHLYMKWVRLTKPQPFKDFLCISLRTFVMRNCAGPTNSLKYVPLVTGLASARNLEHLEMVRVPFLGGLIQHVVEDSWRSGGFRNLHTIVLGACKNALEVDLGYLIITAARRLHEVRIQPSLTKDGVFSALKMAELEFPQFETLHLGYVDEFLLQSRMANADLVKYGLADVVENPGIITDIGMKAVNEVFSCIKYLAIYNCPHLHNPYNWISDHSRWTRLVDINLVRCHALKLDSFGQFIELLPSLEFISLDQMFREPPKGCARVGLSAGTGIGVSSALVSNQNSNNDDNNAQNNNANIHDNNHHHPDDSDEENDFRQDLQPGEQQFAADALNEMEDIVQEDGEVVAESGNNTPAHSQAIIPVDVDEEQAGPSGLQRVVKPTSITVHDSESDDEEDSLELQEVWIPKNGTRRYSEREEKTGESVQSRELSVSGKGKTPLRKRYNSHQMGQSKQFPLEESSCEKGCQVTSEQIKADMKAARDIPEKKKNKDVYPSCSSTTASTVGNSSSHNTASQSPDFVRTVNSGGSSEPSPTEVDVSRQCACSPGGSEDSEAMEEGDAESSVCPRCCCHRPQESQRRTSRCSDEERPSTSRACVVNGPDGTRSAFSFRTLPQGGSSGPAHDERTNGSGSGATGEDRRGSSQPESCDVQSNEDYPRRPLTRARSRLSHVLLVSESEVAKTKPRHAMKRKRTADKSTSTSDPVIEDDHVQVLVLKSKNLVGVTMTNCGITDLVLKDCPKMMFIHATRCRVLKHLKVENAPIVNRFDYAQCKKLNMDQVLDQILRMPPERNRIIYLRPMQQVDTLTLEQKLFSGPYPYHICIIHEFSNPPNVRNKVRIRSWMDTIANINQELIKYEFFPEATRSEEDLKKYPKYPWGREIYTLEGVVDGAPYSMISDFPWLRSLRAAEPNSFARYDFEDDEESTIYAPRRKGQLSADICMETIGEEISEMRQMKKGVFQRVVAIFIHYCDVNGEPVEDDYI [FBXO38]”, the melting temperature was found to be 51.6 °C in the data set with HeLa Kyoto [1] (cell cycle stage: G1/S) and 51.3 °C in the data set on HeLa Kyoto [1] (cell cycle stage: mitosis). The thermal stability score in the data set with HeLa Kyoto [2] (setting [5]) is -0.768; in the data set with HeLa Kyoto [2] (cell cycle stage: mitosis), -0.745. The “solubility change mitosis (log2)” value with HeLa Kyoto [3] is -0.0833. In addition, the “solubility in G1/S (log2)” value in the data set on HeLa Kyoto [4] was -0.338.
“MGPRSRERRAGAVQNTNDSSALSKRSLAARGYVQDPFAALLVPGAARRAPLIHRGYYVRARAVRHCVRAFLEQIGAPQAALRAQILSLGAGFDSLYFRLKTAGRLARAAVWEVDFPDVARRKAERIGETPELCALTGPFERGEPASALCFESADYCILGLDLRQLQRVEEALGAAGLDAASPTLLLAEAVLTYLEPESAAALIAWAAQRFPNALFVVYEQMRPQDAFGQFMLQHFRQLNSPLHGLERFPDVEAQRRRFLQAGWTACGAVDMNEFYHCFLPAEERRRVENIEPFDEFEEWHLKCAHYFILAASRGDTLSHTLVFPSSEAFPRVNPASPSGVFPASVVSSEGQVPNLKRYGHASVFLSPDVILSAGGFGEQEGRHCRVSQFHLLSRDCDSEWKGSQIGSCGTGVQWDGRLYHTMTRLSESRVLVLGGRLSPVSPALGVLQLHFFKSEDNNTEDLKVTITKAGRKDDSTLCCWRHSTTEVSCQNQEYLFVYGGRSVVEPVLSDWHFLHVGTMAWVRIPVEGEVPEARHSHSACTWQGGALIAGGLGASEEPLNSVLFLRPISCGFLWESVDIQPPITPRYSHTAHVLNGKLLLVGGIWIHSSSFPGVTVINLTTGLSSEYQIDTTYVPWPLMLHNHTSILLPEEQQLLLLGGGGNCFSFGTYFNPHTVTLDLSSLSAGQ [LCMT2]”: the results for the melting temperature in the data set on HeLa Kyoto [1] (cell cycle stage: G1/S) and in the data set with HeLa Kyoto [1] (cell cycle stage: mitosis) were 51.2 °C and 50.7 °C, respectively. Further, the values for the thermal stability score in the data set on HeLa Kyoto [2] (setting [5]) and in the data set on HeLa Kyoto [2] (cell cycle stage: mitosis) were -0.211 and -0.346, respectively. Besides, in the data set on HeLa Kyoto [3], the “solubility change mitosis (log2)” value was -0.199. For the same sequence, in the data set with HeLa Kyoto [4], the “solubility in G1/S (log2)” value was -0.0889.
In the case of “MGQIEWAMWANEQALASGLILITGGIVATAGRFTQWYFGAYSIVAGVFVCLLEYPRGKRKKGSTMERWGQKYMTAVVKLFGPFTRNYYVRAVLHLLLSVPAGFLLATILGTACLAIASGIYLLAAVRGEQWTPIEPKPRERPQIGGTIKQPPSNPPPRPPAEARKKPSEEEAAVAAGGPPGGPQVNPIPVTDEVV [CYBA]”, the melting temperature came to 54.8 °C in the data set on HeLa Kyoto [1] (cell cycle stage: G1/S) and 54 °C with HeLa Kyoto [1] (cell cycle stage: mitosis). Besides, the thermal stability score in the data set with HeLa Kyoto [2] (setting [5]) was -0.561; in the data set with HeLa Kyoto [2] (cell cycle stage: mitosis), -1.21. Also, in the data set with HeLa Kyoto [3], the “solubility change mitosis (log2)” value was -0.167. Moreover, the “solubility in G1/S (log2)” value in the data set with HeLa Kyoto [4] came to 0.005.
As to “MGQREMWRLMSRFNAFKRTNTILHHLRMSKHTDAAEEVLLEKKGCTGVITLNRPKFLNALTLNMIRQIYPQLKKWEQDPETFLIIIKGAGGKAFCAGGDIRVISEAEKAKQKIAPVFFREEYMLNNAVGSCQKPYVALIHGITMGGGVGLSVHGQFRVATEKCLFAMPETAIGLFPDVGGGYFLPRLQGKLGYFLALTGFRLKGRDVYRAGIATHFVDSEKLAMLEEDLLALKSPSKENIASVLENYHTESKIDRDKSFILEEHMDKINSCFSANTVEEIIENLQQDGSSFALEQLKVINKMSPTSLKITLRQLMEGSSKTLQEVLTMEYRLSQACMRGHDFHEGVRAVLIDKDQSPKWKPADLKEVTEEDLNNHFKSLGSSDLKF [HIBCH]”, the melting temperature came to 49.7 °C with HeLa Kyoto [1] (cell cycle stage: G1/S) and 50.2 °C in the data set on HeLa Kyoto [1] (cell cycle stage: mitosis). For the same sequence, the results for the thermal stability score with HeLa Kyoto [2] (setting [5]) and in the data set on HeLa Kyoto [2] (cell cycle stage: mitosis) were 0.653 and 0.967, respectively. The “solubility change mitosis (log2)” value with HeLa Kyoto [3] was -0.019. In the data set with HeLa Kyoto [4], the “solubility in G1/S (log2)” value turned out to be 0.343.
Regarding “MGQSGRSRHQKRARAQAQLRNLEAYAANPHSFVFTRGCTGRNIRQLSLDVRRVMEPLTASRLQVRKKNSLKDCVAVAGPLGVTHFLILSKTETNVYFKLMRLPGGPTLTFQVKKYSLVRDVVSSLRRHRMHEQQFAHPPLLVLNSFGPHGMHVKLMATMFQNLFPSINVHKVNLNTIKRCLLIDYNPDSQELDFRHYSIKVVPVGASRGMKKLLQEKFPNMSRLQDISELLATGAGLSESEAEPDGDHNITELPQAVAGRGNMRAQQSAVRLTEIGPRMTLQLIKVQEGVGEGKVMFHSFVSKTEEELQAILEAKEKKLRLKAQRQAQQAQNVQRKQEQREAHRKKSLEGMKKARVGGSDEEASGIPSRTASLELGEDDDEQEDDDIEYFCQAVGEAPSEDLFPEAKQKRLAKSPGRKRKRWEMDRGRGRLCDQKFPKTKDKSQGAQARRGPRGASRDGGRGRGRGRPGKRVA [PPAN]”, the melting temperature with HeLa Kyoto [1] (cell cycle stage: G1/S) came out at 52.2 °C; in the data set on HeLa Kyoto [1] (cell cycle stage: mitosis), 52 °C. Besides, the figures for the thermal stability score in the data set with HeLa Kyoto [2] (setting [5]) and with HeLa Kyoto [2] (cell cycle stage: mitosis) were -0.721 and -2.53, respectively. In addition, the “solubility change mitosis (log2)” value in the data set with HeLa Kyoto [3] was determined as 1.07. Further, the “solubility in G1/S (log2)” value in the data set with HeLa Kyoto [4] is -1.97.
